# Measurements as given in patent US20170173105A1, “AUTOASSEMBLING PEPTIDES FOR THE TREATMENT OF PULMONARY LEAKAGE” (3-D MATRIX, LTD., priority 2014, published 2017).
# Columns and labels:
# [1] = Rheological properties of pH adjusted peptide solutions and hydrogels (stress/frequency sweep); type: physicochemical; conditions: at pH 3.4 (IEIK13 adjusted to 3.7); KLD12 1%, IEIK13 1%, PuraMatrix 1% and 2.5%
# Description: Based on the visual observation of the effect of pH level on the properties of the peptide solutions, the effect on the rheological properties of the peptide solutions after adjusting their pH level to 3.4 (PuraMatrix® and KLD12) or 3.7 (IEIK13) was evaluated. If the pH levels of peptide solutions are higher than 3.5 (PuraMatrix® and KLD12) or 3.7 (IEIK13), the peptide solution began phase separation becoming cloudy. The rheological properties of PuraMatrix®, KLD12 and IEIK13 solutions were higher at pH 3.4. The results are shown in FIG. 2 for KLD12 1%, FIG. 3 for IEIK13 1%, and FIGS. 4-5 for PuraMatrix® 1% and 2.5%, respectively. Stress sweep tests were performed at 10 rad/s. Frequency sweep tests were performed at 1 Pa.
# Based on the results of the effect on the rheological properties of the peptide solutions after adjusting their pH level to 3.4 (PuraMatrix® and KLD12) or 3.7 (IEIK13), the effect on the rheological properties of the peptide solutions at various pH levels was evaluated. […] The rheological properties of peptides were evaluated at various concentrations using a rheometer (DHR-1, TA Instruments) with 20 mm plates. The results are shown in FIG. 6A for PuraMatrix® 2.5% solution and FIG. 6B for IEIK13 1.5% solution, respectively. Frequency sweep tests were performed from 1 rad/sec to 10 rad/sec at 1 Pa and the storage modulus at 1 rad/sec was selected for data.
# Based on the results of the effect on the rheological properties of the peptide solutions after adjusting their pH level, the effect on the rheological properties of the peptide hydrogels at various pH after DMEM treatment was evaluated and compared to the effect on the rheological properties of the peptide solutions at various pH before DMEM treatment. […] The results are shown in FIGS. 7A-7B for PuraMatrix® and FIGS. 8A-8B for IEIK (SEQ ID NO: 5), respectively. Frequency sweep tests were performed from 1 rad/sec to 10 rad/sec at 1 Pa and the storage modulus at 1 rad/sec was selected for data.
# [2] = Appearance of 1.5% peptide solutions with various salts at room temperature; type: physicochemical; conditions: for Appearance: KLD12 solution, room temperature
# Description: The effect of salt ionic strength level on the properties of peptide solutions was evaluated to identify optimized salt ionic strength levels for the peptides as described herein. Increasing the salt ionic strength level of PuraMatrix® and other peptides may generally improve its function and mechanical strength for various clinical applications. To adjust the salt ionic strength of the peptide solutions by way of example, various salt buffer solutions including NaCl, KCl, MgCl2, CaCl2 and DPBS (10×) were added to 2 mL of 1.5% peptide solutions.
substance,measurement,setting,value
Lys-Leu-Asp-Leu-Lys-Leu-Asp-Leu-Lys-Leu-Asp-Leu (Ac-KLDLKLDLKLDL-NH2) [KLD12],rheological properties of solutions after pH adjustment,[1],higher
same,Appearance,"[2]; CaCl2 0 M, ionic strength 0 M, conc. 1.5%","Clear, thick gel"
same,Appearance,"[2]; CaCl2 0.05 M, ionic strength 0.15 M, conc. 1.48%","Clear, thick, stiffer gel"
same,Appearance,"[2]; CaCl2 0.067 M, ionic strength 0.2 M, conc. 1.47%","Clear, thick, stiffer gel"
same,Appearance,"[2]; CaCl2 0.083 M, ionic strength 0.25 M, conc. 1.46%","Clear, thick, stiffer gel"
same,Appearance,"[2]; CaCl2 0.1 M, ionic strength 0.3 M, conc. 1.45%","Clear, thick, stiffer gel"
same,Appearance,"[2]; CaCl2 0.117 M, ionic strength 0.35 M, conc. 1.44%","Clear, thick, stiffer gel"
same,Appearance,"[2]; CaCl2 0.133 M, ionic strength 0.4 M, conc. 1.43%","Slightly cloudy, thick, stiffer gel"
same,Appearance,"[2]; CaCl2 0.15 M, ionic strength 0.45 M, conc. 1.43%","Slightly cloudy, brittle gel"
same,Appearance,"[2]; CaCl2 0.167 M, ionic strength 0.5 M, conc. 1.42%","Cloudy, phase-separated"
same,Appearance,"[2]; KCl 0 M, ionic strength 0 M, conc. 1.5%","Clear, thick gel"
same,Appearance,"[2]; KCl 0.05 M, ionic strength 0.5 M, conc. 1.48%","Clear, thick, stiffer gel"
same,Appearance,"[2]; KCl 0.1 M, ionic strength 0.1 M, conc. 1.45%","Clear, thick, stiffer gel"
same,Appearance,"[2]; KCl 0.15 M, ionic strength 0.15 M, conc. 1.43%","Clear, thick, stiffer gel"
same,Appearance,"[2]; KCl 0.2 M, ionic strength 0.2 M, conc. 1.4%","Clear, thick, stiffer gel"
same,Appearance,"[2]; KCl 0.25 M, ionic strength 0.25 M, conc. 1.38%","Clear, thick, stiffer gel"
same,Appearance,"[2]; KCl 0.3 M, ionic strength 0.3 M, conc. 1.35%","Slightly cloudy, thick, stiffer gel"
same,Appearance,"[2]; KCl 0.35 M, ionic strength 0.35 M, conc. 1.32%","Slightly cloudy, brittle gel"
same,Appearance,"[2]; KCl 0.4 M, ionic strength 0.4 M, conc. 1.3%","Cloudy, phase-separated"
same,Appearance,"[2]; MgCl2 0 M, ionic strength 0 M, conc. 1.5%","Clear, thick gel"
same,Appearance,"[2]; MgCl2 0.05 M, ionic strength 0.15 M, conc. 1.48%","Clear, thick, stiffer gel"
same,Appearance,"[2]; MgCl2 0.067 M, ionic strength 0.2 M, conc. 1.47%","Clear, thick, stiffer gel"
same,Appearance,"[2]; MgCl2 0.083 M, ionic strength 0.25 M, conc. 1.46%","Clear, thick, stiffer gel"
same,Appearance,"[2]; MgCl2 0.1 M, ionic strength 0.3 M, conc. 1.45%","Clear, thick, stiffer gel"
same,Appearance,"[2]; MgCl2 0.117 M, ionic strength 0.35 M, conc. 1.44%","Clear, thick, stiffer gel"
same,Appearance,"[2]; MgCl2 0.133 M, ionic strength 0.4 M, conc. 1.43%","Slightly cloudy, thick, stiffer gel"
same,Appearance,"[2]; MgCl2 0.15 M, ionic strength 0.45 M, conc. 1.43%","Slightly cloudy, brittle gel"
same,Appearance,"[2]; MgCl2 0.167 M, ionic strength 0.5 M, conc. 1.42%","Cloudy, phase-separated"
same,Appearance,"[2]; NaCl 0 M, ionic strength 0 M, conc. 1.5%","Clear, thick gel"
same,Appearance,"[2]; NaCl 0.05 M, ionic strength 0.5 M, conc. 1.48%","Clear, thick, stiffer gel"
same,Appearance,"[2]; NaCl 0.1 M, ionic strength 0.1 M, conc. 1.45%","Clear, thick, stiffer gel"
same,Appearance,"[2]; NaCl 0.15 M, ionic strength 0.15 M, conc. 1.43%","Clear, thick, stiffer gel"
same,Appearance,"[2]; NaCl 0.2 M, ionic strength 0.2 M, conc. 1.4%","Clear, thick, stiffer gel"
same,Appearance,"[2]; NaCl 0.25 M, ionic strength 0.25 M, conc. 1.38%","Clear, thick, stiffer gel"
same,Appearance,"[2]; NaCl 0.3 M, ionic strength 0.3 M, conc. 1.35%","Slightly cloudy, thick, stiffer gel"
same,Appearance,"[2]; NaCl 0.35 M, ionic strength 0.35 M, conc. 1.32%","Slightly cloudy, brittle gel"
same,Appearance,"[2]; NaCl 0.4 M, ionic strength 0.4 M, conc. 1.3%","Cloudy, phase-separated"
same,apparent stiffness on salt ionic strength increase,[2]; up to the ionic strength at which solutions stay clear,increased
